# Laboratory results: patent publication US20090130070A1, “METHOD OF TREATMENT” (The University of Queensland, priority 2004, published 2009)
# Assay: Penetration of Oregon green labeled fetuin A into wounds in the porcine burn model
# Format: in vivo, pigs
# Conditions: 4 hours post treatment
# Experimental: The potential use of the protein as a topical application was explored by labeling the protein with FluoroReporter Oregon Green® 488 Protein (Molecular Probes) then applying it as 1) a hydrophobic cream 2) a hydrophilic cream and an aqueous solution. These were applied to a porcine burn model and skin samples were collected 4 hours after application. Penetration of the protein into the wound was observed by epifluorescent microscopy.
# Lyophilised bovine Fetuin A (Sigma) was dissolved in purified water at a concentration of 10 mg/mL. Aliquots of 200 μl were labelled using a FluoroReporter Oregon Green® 488 Protein Labelling Kit (Molecular Probes) after the manufacturer's instructions. The resulting solution was dried down using a Labconco Centrivap concentrator and weighed. Sufficient carriers (paraffin cream (Orion, Australia), aqueous cream (Orion, Australia) or purified water) were added to produce a final concentration of 2 mg/ml of solution or 2 mg/g fetuin cream. Sufficient unlabelled fetuin A was added to the solution and cream to bring the total fetuin A concentration up to 40 mg/ml or gram.
# All animal experiments were approved by the University of Queensland animal ethics committee. Six 20 kg pigs (approximately 9 weeks post partum) were scalded under general anaesthesia. Water (400 mls) was placed in a 500 ml Schott bottle whose base had been removed with a diamond saw and replaced by cling wrap held in place by autoclave tape. The water was heated in a microwave oven to 92° C. (temperature was measured with a Dick Smith Q1437 digital thermometer) then the bottle was placed on the clipped side of the animal for 15 seconds. A single 8.5 cm diameter wound was placed on each side of the animal. Each animal received a different treatment these being:
# 1. Treatment of intact skin with an aqueous solution of 2 mls of Oregon green labeled bovine fetuin (40 mg/ml in sterile phosphate buffered saline pH 7.4).
# 2. Treatment of intact skin with an aqueous gel of 2 g of Oregon green labeled bovine fetuin (40 mg/g in Solosite™ wound gel).
# 3. […]
substance,measurement,setting,value
Fetuin: bovine fetuin A (Sigma); glycoprotein also called alpha2-Heremans-Schmid-glycoprotein (AHSG),penetration into the wound bed,"debrided wound, aqueous solution",significant penetration into the wound bed
same,penetration into the wound bed,"debrided wound, water based gel",significant penetration into the wound bed
same,penetration into the wound bed,direct injection into the wound,significant penetration into the wound bed
